Measured values taken from patent US20230192860A1 (Bristol-Myers Squibb, published 2023).
Residue numbers refer to the chain shown, from its start. Numbers in names are those of the source. Each block holds one binder with its values, some of them ahead of it.

Columns and labels:
[1] = target: T1, monovalent hVISTA-ECD (amino acids 32-193 of SEQ ID NO: 1 with a 7xHis tail) (human, UniProt Q9H7M9 33-193); test: SPR, pH 7.4 over pH 6.0
T1 construct: analyte of the SPR assays; also called huVISTA-His; human VISTA-ECD
Method: (§1) Further binding kinetic experiments were performed at various pHs on VISTA antibodies described herein by SPR as generally described in Example 9 above. Antibodies were normalized to 50 nM concentration in PBST pH 7.4 and captured on a Protein A CM5 chip (ID 4931) by injecting for 45 seconds at a 5 µL/min flow rate. An 8-point human VISTA titration ([…]) was prepared in PBST at pH 7.4, 6.9, 6.45, and 6.0. Titrations were injected over the captured antibodies for 180 seconds at 30 µL/min. Sensorgrams were fit to a 1:1 binding model in T200 evaluation software and the kinetic constants were reported.
(§2) Each table reports the data at one of the four tested pHs (7.4, 6.9, 6.45, and 6.0, respectively). The 8-point hVISTA titration used in these assays was chosen to provide increased confidence in kinetic values reported at neutral pH conditions. A relatively stringent cutoff for non-binding was applied in this assay. Certain progeny of P1-061029 antibody (P1-068757, ‘759, ‘765, ‘771, and ‘775) show no binding to hVISTA at micromolar concentrations at pH 7.4, while ‘761 and ‘767 show no binding to hVISTA at 100 nM at pH 7.4 but do show binding to hVISTA at micromolar concentrations.

[2] = target: T1, monovalent hVISTA-ECD (amino acids …); test: SPR, Ab on Protein A, hVISTA 100-7.8 nM, pH 7.4
Method: as §1

[3] = target: T1, monovalent hVISTA-ECD (amino acids …); test: SPR 37C, Ab on Protein A, hVISTA-ECD 50-5 nM, pH 6.0, average
Method: Binding of several preparations of each of the ‘029 progeny clones and of the parent ‘029 antibodies, formatted as IgG1.3 antibodies, to human VISTA at pH 6.0 and 7.4 was measured by Surface plasmon resonance (SPR). SPR analysis was performed to measure koff and KD binding affinity measurements for VISTA Abs at acidic and neutral pHs using a Biacore® T100 instrument (GE Healthcare). […] Antibodies were diluted to 25 nM in PBST pH 7.4, and were captured across active biosensor flow cells at 5 ul/min for 60 seconds. A concentration series of 50 - 5 nM monovalent hVISTA-ECD (SEQ ID NO: 325) was prepared in pH 7.4 and 6.0 running buffers, and was injected over the captured antibodies at 40 ul/min to measure association and dissociation. Two 15 second injections of 10 mM glycine pH 1.5 were used to regenerate the Protein A capture surface between assay cycles. Rate constants ka (kₒₙ) and kd (koff) were derived from reference flow cell and 0 nM blank-subtracted sensorgrams, and were fit to a 1:1 binding model in Biacore® T200 Evaluation Software v.2.0. The affinity constant, KD was calculated as the ratio of rate constants koff/kₒₙ for each VISTA antibody.

[4] = target: T2, hVISTA-ECD 6-His tag (human, UniProt Q9H7M9 33-193); test: SPR, Ab on Protein A, hVISTA analyte, pH 6.0
T2 construct: also called monovalent hVISTA-ECD; human VISTA

[5] = target: T2, hVISTA-ECD 6-His tag; test: SPR; kd at pH 6.45 over kd at pH 6.0 (head prints 7.4)
Method: as §1, §2

[6] = target: T2, hVISTA-ECD 6-His tag; test: SPR; KD at pH 6.45 over KD at pH 6.0 (head prints 7.4)
[7] = target: T2, hVISTA-ECD 6-His tag; test: SPR, Ab on Protein A, hVISTA analyte, pH 6.45
[8] = target: T2, hVISTA-ECD 6-His tag; test: SPR; kd at pH 6.9 over kd at pH 6.0 (head prints 7.4)
Method: as §1, §2

[9] = target: T2, hVISTA-ECD 6-His tag; test: SPR, Ab on Protein A, hVISTA analyte, pH 6.9
Method: as §1, §2

[10] = target: T2, hVISTA-ECD 6-His tag; test: SPR; KD at pH 6.9 over KD at pH 6.0 (head prints 7.4)
Method: as §1, §2

T1 sequence (Q9H7M9 other isoform, or with tags, fused parts or gaps limits assumed): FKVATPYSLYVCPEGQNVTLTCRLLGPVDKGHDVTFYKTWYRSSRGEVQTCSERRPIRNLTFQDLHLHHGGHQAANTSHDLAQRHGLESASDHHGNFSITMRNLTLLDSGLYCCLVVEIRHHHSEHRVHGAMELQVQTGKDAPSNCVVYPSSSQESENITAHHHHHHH
T2 sequence (Q9H7M9 other isoform, or with tags, fused parts or gaps limits assumed): as above

B2: P1-061520 (41F11 VK_A64G) (antibody, V domains shown)
VH: QVQLVESGGGLVKPGGSLRLSCAASGFTFSDYYMSWIRQAPGKGLEWVSYISNSGSPIYYADSVKGRFTISRDNAKNSLYLQMNSLRAEDTAVYYCARDLPGWYFDLWGRGTLVTVSS
VL: EIVLTQSPATLSLSPGERATLSCRASQSVSSYLAWYQQKPGQAPRLLIYDASNRATGIPARFSGSGSGTDFTLTISSLEPEDFAVYYCQQRNNWPRTFGQGTKVEIKR
notes: tied through the name 41F11 and the A64G change; also called P1-061520-21; VISTA.4.A64G
7.4 KD/ 6.0 KD [1]: 0.1 | 7.4 kd/ 6.0 kd [1]: 0 | Kd [2]: 1.42 nM | koff [2]: 0.000871 s⁻¹ | kon [2]: 613000 M⁻¹ s⁻¹

B4: P1-068748 (antibody, human IgG1, kappa, V domains shown)
VH: QVQLVESGGGVVQPGRSLRLSCAASGFTFSHHAMHWVRQAPGKGLEWVAIIWYDGSNDDYADSVKGRFTISRDNSKNTLYLQMNSLRAEDTAVYYCARDSGFYDSYYFDYWGQGTLVTVSS
VL: EIVLTQSPATLSLSPGERATLSCRASQSVSSSYLAWYQQKPGQAPRLLIYDASNRATGIPARFSGSGSGTDFTLTISSLEPEDFATYYCQQYNSYPYTFGQGTKLEIKR
notes: IgG1.3; also called P1-068748-6
Kd [3]: 1 nM | koff [3]: 0.0015 s⁻¹ | kon [3]: 1.4e+06 M⁻¹ s⁻¹ | 7.4 KD/ 6.0 KD [1]: 212 | 7.4 kd/ 6.0 kd [1]: 9.9 | Kd [2]: 920 nM | koff [2]: 0.036 s⁻¹ | kon [2]: 40000 M⁻¹ s⁻¹

B5: P1-061029 (antibody, human IgG1, kappa)
heavy: EVQLVESGGGLVQPGKSLRLSCAASGFTLDDYAMHWVRQAPGKGLEWVSGINWNSANIGYADSVKGRFTISRDNAKNSLYLQMNSLRTEDTALYYCAKVPGYSGGWIDAFDVWGQGTMVTVSSASTKGPSVFPLAPSSKSTSGGTAALGCLVKDYFPEPVTVSWNSGALTSGVHTFPAVLQSSGLYSLSSVVTVPSSSLGTQTYICNVNHKPSNTKVDKRVEPKSCDKTHTCPPCPAPEAEGAPSVFLFPPKPKDTLMISRTPEVTCVVVDVSHEDPEVKFNWYVDGVEVHNAKTKPREEQYNSTYRVVSVLTVLHQDWLNGKEYKCKVSNKALPAPIEKTISKAKGQPREPQVYTLPPSREEMTKNQVSLTCLVKGFYPSDIAVEWESNGQPENNYKTTPPVLDSDGSFFLYSKLTVDKSRWQQGNVFSCSVMHEALHNHYTQKSLSLSPG
light: not shown
notes: also called P1-061029-18; P1-061029.IgG1.3
Kd [4]: 2.91 nM | koff [4]: 0.00527 s⁻¹ | kon [4]: 1.81e+06 M⁻¹ s⁻¹ | 7.4 kd/ 6.0 kd [5]: 0.9 | 7.4 KD/ 6.0 KD [6]: 1.8 | Kd [7]: 5.13 nM | koff [7]: 0.0045 s⁻¹ | kon [7]: 876000 M⁻¹ s⁻¹ | 7.4 kd/ 6.0 kd [8]: 0.8 | Kd [9]: 7.13 nM | koff [9]: 0.00416 s⁻¹ | kon [9]: 583000 M⁻¹ s⁻¹ | 7.4 KD/ 6.0 KD [10]: 2.5

B7: P1-070870 (P1-068761_E56N) (antibody, human IgG1, kappa, V domains shown)
VH: EVQLVESGGGLVQPGKSLRLSCAASGFTLEDEAMHWVRQAPGKGLEWVSGINWNSENIGYADSVKGRFTISRDNAKNSLYLQMNSLRTEDTALYYCAKVPGYSHGWIDAEDVWGQGTMVTVSS
VL: not shown
notes: also called P1-070870-3
Kd [4]: 32 nM | koff [4]: 0.0063 s⁻¹ | kon [4]: 200000 M⁻¹ s⁻¹ | 7.4 kd/ 6.0 kd [5]: 1.9 | 7.4 KD/ 6.0 KD [6]: 4.6 | Kd [7]: 150 nM | koff [7]: 0.012 s⁻¹ | kon [7]: 80000 M⁻¹ s⁻¹ | 7.4 kd/ 6.0 kd [8]: 7.9 | Kd [9]: 10000 nM | koff [9]: 0.049 s⁻¹ | kon [9]: 4900 M⁻¹ s⁻¹ | 7.4 KD/ 6.0 KD [10]: 316

B8: P1-070864 (P1-068761_E30D) (antibody, human IgG1, kappa, V domains shown)
VH: B7 VH with E30D, N57E
VL: not shown
notes: also called P1-070864-3
Kd [4]: 15 nM | koff [4]: 0.0068 s⁻¹ | kon [4]: 440000 M⁻¹ s⁻¹ | 7.4 kd/ 6.0 kd [5]: 6.8 | 7.4 KD/ 6.0 KD [6]: 7.4 | Kd [7]: 110 nM | koff [7]: 0.046 s⁻¹ | kon [7]: 410000 M⁻¹ s⁻¹ | 7.4 kd/ 6.0 kd [8]: 4.9 | Kd [9]: 8100 nM | koff [9]: 0.034 s⁻¹ | kon [9]: 4200 M⁻¹ s⁻¹ | 7.4 KD/ 6.0 KD [10]: 523

B9: P1-070868 (P1-068761_E55A) (antibody, human IgG1, kappa, V domains shown)
VH: B7 VH with E56A, N57E
VL: not shown
notes: also called P1-070868-6
Kd [4]: 5.4 nM | koff [4]: 0.0023 s⁻¹ | kon [4]: 430000 M⁻¹ s⁻¹ | 7.4 kd/ 6.0 kd [5]: 3.7 | 7.4 KD/ 6.0 KD [6]: 6.7 | Kd [7]: 36 nM | koff [7]: 0.0087 s⁻¹ | kon [7]: 240000 M⁻¹ s⁻¹ | 7.4 kd/ 6.0 kd [8]: 6.5 | Kd [9]: 6700 nM | koff [9]: 0.015 s⁻¹ | kon [9]: 2300 M⁻¹ s⁻¹ | 7.4 KD/ 6.0 KD [10]: 1240

B11: P1-070872 (P1-068761_H100G) (antibody, human IgG1, kappa, V domains shown)
VH: B7 VH with N57E, H104G
VL: not shown
notes: also called P1-070872-4
Kd [4]: 8.2 nM | koff [4]: 0.0056 s⁻¹ | kon [4]: 680000 M⁻¹ s⁻¹ | 7.4 kd/ 6.0 kd [5]: 4.5 | 7.4 KD/ 6.0 KD [6]: 8.3 | Kd [7]: 68 nM | koff [7]: 0.025 s⁻¹ | kon [7]: 360000 M⁻¹ s⁻¹ | 7.4 kd/ 6.0 kd [8]: 5.1 | Kd [9]: 15000 nM | koff [9]: 0.028 s⁻¹ | kon [9]: 1900 M⁻¹ s⁻¹ | 7.4 KD/ 6.0 KD [10]: 1820

B12: P1-068761 (antibody, human IgG1, kappa)
heavy: B5 heavy with D30E, Y32E, A56E, N57E, G104H, F110E
light: not shown
notes: also called P1-068761-20
Kd [4]: 2.71 nM | koff [4]: 0.00202 s⁻¹ | kon [4]: 745000 M⁻¹ s⁻¹ | 7.4 kd/ 6.0 kd [5]: 1.5 | 7.4 KD/ 6.0 KD [6]: 6 | Kd [7]: 16.2 nM | koff [7]: 0.00309 s⁻¹ | kon [7]: 190000 M⁻¹ s⁻¹ | 7.4 kd/ 6.0 kd [8]: 4.1 | Kd [9]: 142 nM | koff [9]: 0.00832 s⁻¹ | kon [9]: 58700 M⁻¹ s⁻¹ | 7.4 KD/ 6.0 KD [10]: 52.4

Other lines, results leading:

7.4 KD/ 6.0 KD [1]: 563 | 7.4 kd/ 6.0 kd [1]: 19.4 | Kd [2]: 3700 nM | koff [2]: 0.038 s⁻¹ | kon [2]: 10000 M⁻¹ s⁻¹
B1: P1-070916 (P1-068767_D52N_E55A) (antibody, human IgG1, kappa, V domains shown)
VH: B7 VH with E32Y, E56A, H104G, V112D
VL: not shown
notes: IgG1.3; also called P1-070916-6

7.4 KD/ 6.0 KD [1]: 696 | 7.4 kd/ 6.0 kd [1]: 7 | Kd [2]: 6900 nM | koff [2]: 0.016 s⁻¹ | kon [2]: 2400 M⁻¹ s⁻¹
B3: P1-070976 (41F11_VH_T28P_Y50W_S55E_D95H_L96E_P97E_Y100E; Vk_A64G) (antibody, V domains shown)
VH: B2 VH with T28P, Y50W, S56E, D99H, L100E, P101E, Y104E
VL: EIVLTQSPATLSLSPGERATLSCRASQSVSSYLAWYQQKPGQAPRLLIYDASNRATGIPARFSGSGSGTDFTLTISSLEPEDFAVYYCQQRNNWPRTFGQGTKVEIK
notes: also called P1-070976-11

Kd [4]: 33 nM | koff [4]: 0.0063 s⁻¹ | kon [4]: 190000 M⁻¹ s⁻¹ | 7.4 kd/ 6.0 kd [5]: 2 | 7.4 KD/ 6.0 KD [6]: 4.9 | Kd [7]: 160 nM | koff [7]: 0.012 s⁻¹ | kon [7]: 78000 M⁻¹ s⁻¹ | 7.4 kd/ 6.0 kd [8]: 4.5 | Kd [9]: 9800 nM | koff [9]: 0.028 s⁻¹ | kon [9]: 2900 M⁻¹ s⁻¹ | 7.4 KD/ 6.0 KD [10]: 301
B6: P1-070878 (P1-068761_E55A_E56N) (antibody, human IgG1, kappa, V domains shown)
VH: B7 VH with E56A
VL: not shown
notes: also called P1-070878-3

Kd [4]: 21 nM | koff [4]: 0.0081 s⁻¹ | kon [4]: 390000 M⁻¹ s⁻¹ | 7.4 kd/ 6.0 kd [5]: 3.9 | 7.4 KD/ 6.0 KD [6]: 6.3 | Kd [7]: 130 nM | koff [7]: 0.032 s⁻¹ | kon [7]: 240000 M⁻¹ s⁻¹ | 7.4 kd/ 6.0 kd [8]: 4.9 | Kd [9]: 4400 nM | koff [9]: 0.04 s⁻¹ | kon [9]: 9000 M⁻¹ s⁻¹ | 7.4 KD/ 6.0 KD [10]: 211
B10: P1-070890 (P1-068761_E30D_E55A) (antibody, human IgG1, kappa, V domains shown)
VH: B7 VH with E30D, E56A, N57E
VL: not shown
notes: also called P1-070890-3
